From the supplement of paper PMC9233669
Fewer inactive variants are shown than the library holds.

Key:
biotinyl-Phe-oxazolone = assay: self-aminoacylation, catalytic enhancement (BFO) (fold over background); higher = more active; k-Seq, kA / k0A0; sequences stand for … in GGGAAUGGAUCCACAUCUACGAAUUC…UUCACUGCAGACUUGACGAAGCUG
Method in brief: (§1)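 Each biotinyl-aminoacyl-oxazolone, at 2–1250 μM, was incubated with mutagenized RNA pools (0.43 μM) carrying a 21-nt variable region. The 50 μL reactions contained HEPES/NaCl/KCl/MgCl2/CaCl2 buffer with 5% acetonitrile at pH 6.9–7.0 and ran for 90 minutes at room temperature. After streptavidin capture, RNA was measured by qPCR in triplicate and by Illumina sequencing, and catalytic enhancement was calculated as median kA over the uncatalyzed rate from a pseudo-first-order fit of per-sequence fraction reacted.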

biotinyl-Ile-oxazolone = assay: self-aminoacylation, catalytic enhancement (BIO) (fold over background); higher = more active; k-Seq, kA / k0A0; sequences stand for … in GGGAAUGGAUCCACAUCUACGAAUUC…UUCACUGCAGACUUGACGAAGCUG
Method in brief: as §1

biotinyl-Met-oxazolone = assay: self-aminoacylation, catalytic enhancement (BMO) (fold over background); higher = more active; k-Seq, kA / k0A0; sequences stand for … in GGGAAUGGAUCCACAUCUACGAAUUC…UUCACUGCAGACUUGACGAAGCUG
Method in brief: as §1

biotinyl-Val-oxazolone = assay: self-aminoacylation, catalytic enhancement (BVO) (fold over background); higher = more active; k-Seq, kA / k0A0; sequences stand for … in GGGAAUGGAUCCACAUCUACGAAUUC…UUCACUGCAGACUUGACGAAGCUG
Method in brief: as §1

biotinyl-Leu-oxazolone = assay: self-aminoacylation, catalytic enhancement (BLO) (fold over background); higher = more active; k-Seq, kA / k0A0; sequences stand for … in GGGAAUGGAUCCACAUCUACGAAUUC…UUCACUGCAGACUUGACGAAGCUG
Method in brief: as §1

biotinyl-Trp-oxazolone = assay: self-aminoacylation, catalytic enhancement (BWO) (fold over background); higher = more active; k-Seq, kA / k0A0; sequences stand for … in GGGAAUGGAUCCACAUCUACGAAUUC…UUCACUGCAGACUUGACGAAGCUG
Method in brief: as §1

Row | Sequence | self-aminoacylation (biotinyl-Phe-oxazolone) | self-aminoacylation (biotinyl-Ile-oxazolone) | self-aminoacylation (biotinyl-Met-oxazolone) | self-aminoacylation (biotinyl-Val-oxazolone) | self-aminoacylation (biotinyl-Leu-oxazolone) | self-aminoacylation (biotinyl-Trp-oxazolone)
1 | AUUACCCCGAUCAUCGAGUGA [Fam2.1 aminoacylation ribozyme variant] | 27.4 | 3.39 | 7.24 | 3.77 | 7.03 | 7.71
2 | AUUCAACUAGGUCAUCGCGUG [Fam2.2 aminoacylation ribozyme variant] | 65.2 | 5.91 | 9.12 | 5.81 | 13.6 | 9.5
3 | AUUCAACUAGGUCAUCGGGUC [Fam2.2 aminoacylation ribozyme variant] | 1.77 | 1.02 | 1.14 | 0.979 | 1.15 | 1.22
4 | AUUACCCUGGCCAGCGAGUGA [Fam2.1 aminoacylation ribozyme variant] | 18 | 2.73 | 5 | 3.29 | 4.29 | 4.9
5 | CUACUUCAAAGAAUCGGUCUA [Fam1A.1 aminoacylation ribozyme variant] | 1.2 | 0.748 | 0.608 | 0.665 | 0.737 | 0.542
6 | CUCCUUCAUACAAUCGGUCUG [Fam1A.1 aminoacylation ribozyme variant] | 0.839 | 0.652 | 0.609 | 0.664 | 0.771 | 0.794
7 | AUUAACCUAGGUCAUCGGGUU [Fam2.2 aminoacylation ribozyme variant] | 40.5 | 5.18 | 9.3 | 4.78 | 12.7 | 6.05
8 | AUGAGCCUGGUCAUCGAGUGA [Fam2.1 aminoacylation ribozyme variant] | 31.3 | 3.82 | 5.66 | 3.71 | 5.69 | 6.33
9 | CCACACUUCAACCAUUCGGUC [Fam1B.1 aminoacylation ribozyme variant] | 6.93 | 1.51 | 1.52 | 1.35 | 1.25 | 1.98
10 | AUGCACCUAGUUCAUCGGGUG [Fam2.2 aminoacylation ribozyme variant] | 13.6 | 2.77 | 2.73 | 2.37 | 3.07 | 4.29
11 | CAACAGUUCAAGCAAUCGGUC [Fam1B.1 aminoacylation ribozyme variant] | 4.54 | 1.22 | 1.28 | 1.15 | 1.38 | 3.42
12 | UAGUUUGCUAAUAGUCCCAAG [Fam3.1 aminoacylation ribozyme variant] | 2.1 | 1.03 | 0.851 | 0.864 | 0.805 | 1.37
13 | AUUCACCGAGGUCAUCCGGUG [Fam2.2 aminoacylation ribozyme variant] | 80.2 | 7.31 | 9.07 | 8.04 | 12.4 | 10.1
14 | CUGCUUCAGACAAUCGGUCUG [Fam1A.1 aminoacylation ribozyme variant] | 1.78 | 0.949 | 1.22 | 0.929 | 1.1 | 1.28
15 | AAGUUUGAUAAUGGUCGCAAG [Fam3.1 aminoacylation ribozyme variant] | 1.47 | 0.891 | 0.785 | 0.644 | 0.895 | 0.581
16 | AGUCACCUAGGUAAUCGGGUG [Fam2.2 aminoacylation ribozyme variant] | 25.4 | 3.27 | 3.4 | 2.75 | 3.37 | 3.64
17 | CCACACUUCAAGCAUUCGCUC [Fam1B.1 aminoacylation ribozyme variant] | 2.04 | 2.27 | 2.42 | 2.88 | 2.41 | 2.64
18 | AUUCACCUGGGUCAUCGGGAG [Fam2.2 aminoacylation ribozyme variant] | 7.65 | 1.65 | 1.86 | 1.62 | 1.51 | 2.29
19 | CUACUUCAAACACUCGUUCUG [Fam1A.1 aminoacylation ribozyme variant] | 0.429 | 0.595 | 0.499 | 0.635 | 0.492 | 0.444
20 | AUUCCCCUGGGCAUCGAGUGA [Fam2.1 aminoacylation ribozyme variant] | 65.9 | 5.22 | 10.8 | 5.1 | 11.1 | 11.6
21 | CUGCUUCAAACAAUCGGUCCG [Fam1A.1 aminoacylation ribozyme variant] | 119 | 1.35 | 1.34 | 1.38 | 2.38 | 39.6
22 | CUAUUUCAAACAAUUGGUCUG [Fam1A.1 aminoacylation ribozyme variant] | 0.87 | 1.01 | 0.994 | 0.873 | 0.929 | 0.736
23 | AAUACCCCGGUCAUCGAGUGA [Fam2.1 aminoacylation ribozyme variant] | 27.9 | 3.15 | 4.63 | 3.57 | 5.27 | 5.61
24 | AUUACCCUGGUCAUCUAGAGA [Fam2.1 aminoacylation ribozyme variant] | 0.684 | 1.04 | 0.865 | 1.03 | 0.887 | 0.6
25 | CUACUUCUAACGAUCGGUCUG [Fam1A.1 aminoacylation ribozyme variant] | 0.785 | 0.675 | 0.747 | 0.688 | 0.622 | 0.505
26 | AUUACGCUGGUCGUCGAGUGA [Fam2.1 aminoacylation ribozyme variant] | 4.94 | 1.37 | 1.25 | 1.36 | 1.49 | 1.37
